Experimental data reported in paper PMC10206775.
pKd: −log10 of the molar value.

Experiments:
[1] = target: BmTFF3 (β-subunit of βγ-CAT) (Bombina maxima (endogenous in skin secretions))
[2] = target: Bombina maxima IgG Fc-binding protein (FCGBP) (Bombina maxima (endogenous in skin secretions)); experiment: BLI; FCGBP (10 μg/ml, 0.01 M sodium acetate pH 4.0) amine-coupled to AR2G biosensors; βγ-CAT 1000-31.25 nM in PBS, association 300 s, dissociation 180 s; global fit, 1:1 binding model

BmALP1 (α-subunit of βγ-CAT) (natural protein)
dye release from calcein liposomes (fluorescence at 518 nm, % of maximum) by BmALP1 polymer (50 nM) with BmTFF3 (200 nM) and FCGBP at 25, 50 and 150 nM [1]: 76.8%

βγ-CAT complex (BmALP1 and BmTFF3)
pKd [2]: 7.67
